Measured values from patent publication US20040198656A1, “Methods of screening molecules that are used to prevent cardiovascular diseases” (priority 2001, published 2004).

Tests used:
Format in all cases: in vivo
LpL = LpL activity in post-heparin plasma (total lipase minus HL); settings: human AA4RP transgenic mice, FVB/N background
Method: (§1) The test was carried out on post-heparin plasma (collected 5 min after heparin injection) from transgenic mice and control mice with a FVB/N genetic background. Total lipase activity was determined by incubation with radiolabelled triolein and in the presence of a cofactor (apo CII). HL activity was determined after incubation of each plasma sample with triolein but in this case in the absence of apo CII and in the presence of 1 M NaCl to eliminate LpL activity. Lipase activity in each plasma sample was then calculated by determining the number of moles of free fatty acid. Finally, LpL activity was calculated by subtracting HL activity from total lipase activity.

total lipase = assay: Total lipase activity in post-heparin plasma (radiolabelled triolein, apo CII); settings: human AA4RP transgenic mice, FVB/N background
Method: as §1

[1] = Triglyceride levels in AA4RP transgenic mice on a lipid-rich diet
Method: Samples from AA4RP transgenic mice or control mice maintained on a lipid-rich diet were diluted 1/3 or 1/5in physiological serum, then assayed for triglycerides against a calibration curve prepared with CFAS lipid calibrator, Ref. 759350 (Boehringer Mannheim GmbH, Germany). The calibration curve covered a concentration range of 16 to 500 μg/ml. 100 μl of each sample dilution or calibration point were deposited in each well of a 96-well titration plate. Next, 200 μl of triglyceride reagent Ref. 701912 (Boehringer Mannheim GmbH, Germany) were added to each well and the plate was incubated at 37° C. for 30 min. Optical densities (OD) were read on a spectrophotometer set at 492 nm. Triglyceride concentrations in each sample were calculated from a standard curve plotted as a linear equation y=ax+b, where y represents OD and x represents triglyceride concentration.

HL = HL activity in post-heparin plasma (triolein, no apo CII, 1 M NaCl); settings: human AA4RP transgenic mice, FVB/N background
Method: as §1

apo CIII = assay: Apo CIII assay by immuno-nephelometry in mice overexpressing human AA4RP; settings: AA4RP transgenic mice, lipid-rich diet
Method: Apo CIII in mice overexpressing human AA4RP was assayed by immuno-nephelometry on an ARRAY® immunochemistry system (Beckman Coulter, Villepinte, France). Pooled sera from normolipidic mice were used as standard; the apo CIII concentration therein was 25 μg/ml. A calibration curve from 4 μg/ml to 25 μg/ml was prepared by diluting the standard in 0.01 M potassium phosphate pH 7.2.
Plasma samples from mice overexpressing human AA4RP or not, maintained on a lipid-rich diet, and plasma samples from knock out homozygous (−/−), heterozygous (+/−) or wild type (+/+) mice were diluted 1/6 or 1/12 in the same conditions as the standard. Forty-two microliters of each calibration point and each sample from the different mice under study were incubated with 42 μl of mouse anti-apo CIII (in a reaction cell containing polyethylene glycol (PEG)). The apo CIII concentration in the sample is directly proportional to the light intensity reflected by the precipitate formed during the antigen-antibody reaction.

[2] = Triglyceride distribution in VLDL, LDL and HDL (Superose 6 FPLC) of plasma; settings: AA4RP transgenic mice versus control mice, plasma fractions
Method: The distribution of triglycerides in VLDL, LDL and HDL was studied on 200 μl fractions of plasma from AA4RP transgenic mice or control mice maintained on a lipid-rich diet.
The different particles were fractionated on a Pharmacia Superose 6 column integrated in an AKTA FPLC system (Pharmacia Biotech, Umeå, Sweden). The different fractions were eluted with 0.01 M PBS, 0.1 M NaCl, pH 7.2 at a flow rate of 0.2 ml/min. The triglyceride concentration in each fraction was determined as described hereinabove.

B1: AA4RP: Protein of 366 amino acids (SEQ ID NO 1), apolipoprotein AIV related protein; overexpressed in transgenic mice (protein, listed as Homo sapiens)
chain: MASMAAVLTWALALLSAFSATQARKGFWDYFSQTSGDKGRVEQIHQQKMAREPATLKDSLEQDLNNMNKFLEKLRPLSGSEAPRLPQDPVGMRRQLQEELEEVKARLQPYMAEAHELVGWNLEGLRQQLKPYTMDLMEQVALRVQELQEQLRVVGEDTKAQLLGGVDEAWALLQGLQSRVVHHTGRFKELFHPYAESLVSGIGRHVQELHRSVAPHAPASPARLSRCVQVLSRKLTLKAKALHARIQQNLDQLREELSRAFAGTGTEEGAGPDPQMLSEEVRQRLQAFRQDTYLQIAAFTRAIDQETEEVQQQLAPPPPGHSAFAPEFQQTDSGKVLSKLQARLDDLWEDITHSLHDQGHSHLGDP
LpL activity versus controls (LpL): significant increase | Total lipase activity versus controls (total lipase): significant increase | Triglyceride levels versus control mice ([1]; Student's t test p<0.001): significantly lower | Triglycerides ([1]; mean): 0.361 mg/mL | HL activity versus controls (HL): significant increase | Apo CIII level versus control mice (apo CIII): approximately three times lower | Apo CIII (apo CIII; plasma, mean): 30.70 µg/mL | Accumulation of triglyceride-rich particles after a lipid-rich diet [2]: not observed
